Results as given in patent US20220363770A1 (Amgen, published 2022).

Tests used:
human PAC1 receptor = target: T1, human PAC1 receptor (human, UniProt P41586 24-468); test: cell-based or functional assay
T1 sequence: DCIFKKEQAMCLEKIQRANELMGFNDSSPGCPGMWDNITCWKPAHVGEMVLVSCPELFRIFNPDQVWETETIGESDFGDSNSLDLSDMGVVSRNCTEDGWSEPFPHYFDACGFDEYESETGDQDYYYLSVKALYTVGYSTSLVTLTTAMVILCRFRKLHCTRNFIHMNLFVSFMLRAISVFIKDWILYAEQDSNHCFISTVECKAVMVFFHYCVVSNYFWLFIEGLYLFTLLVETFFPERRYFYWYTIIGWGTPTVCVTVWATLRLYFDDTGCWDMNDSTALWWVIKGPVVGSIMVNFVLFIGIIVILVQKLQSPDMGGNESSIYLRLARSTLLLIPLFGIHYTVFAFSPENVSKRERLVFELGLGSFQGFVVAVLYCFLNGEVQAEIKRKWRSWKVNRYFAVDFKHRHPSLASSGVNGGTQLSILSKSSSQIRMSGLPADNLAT

human CGRP receptor = human CGRP receptor (human, UniProt Q16602 23-461; O60894 27-148); test: cell-based or functional assay
Chain of human CGRP receptor (Q16602 23-461 limits assumed, chain 1 of 2): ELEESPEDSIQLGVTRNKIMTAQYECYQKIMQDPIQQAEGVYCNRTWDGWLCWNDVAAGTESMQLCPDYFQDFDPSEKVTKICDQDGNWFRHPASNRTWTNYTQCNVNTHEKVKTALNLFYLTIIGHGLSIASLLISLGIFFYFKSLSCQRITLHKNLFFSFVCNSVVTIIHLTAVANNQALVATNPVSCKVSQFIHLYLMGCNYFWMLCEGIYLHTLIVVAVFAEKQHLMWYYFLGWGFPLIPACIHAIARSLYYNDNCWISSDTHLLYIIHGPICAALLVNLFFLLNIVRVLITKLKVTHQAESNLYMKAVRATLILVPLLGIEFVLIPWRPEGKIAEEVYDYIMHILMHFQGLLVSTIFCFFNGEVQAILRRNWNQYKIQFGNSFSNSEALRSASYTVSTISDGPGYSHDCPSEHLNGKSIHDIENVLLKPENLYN
Chain of human CGRP receptor (O60894 27-148 limits assumed, chain 2 of 2): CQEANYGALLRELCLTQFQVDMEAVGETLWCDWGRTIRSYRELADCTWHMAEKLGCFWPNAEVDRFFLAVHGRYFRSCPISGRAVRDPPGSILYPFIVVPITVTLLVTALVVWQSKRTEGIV

Binder	Fold-improvement over 29G4v22 Ab (human PAC1 receptor) [fold]	IC50 (human PAC1 receptor) [nM]	Fold-improvement over 4E4 Ab (human CGRP receptor) [fold]	IC50 (human CGRP receptor) [nM]
iPS:454823 (bispecific antibody, human IgG1, kappa, lambda, N297G) light 1: QSVLTQPPSVSAAPGQKVTISCSGSRSNIGIKAVSWYQQLPGTAPKLLIYDNNKRPSGIPDRFSGSKSGTSATLGITGLQTGDEADYYCGTWDSRLSAVVFGGGTKLTVLGQPKAAPSVTLFPPSSEELQANKATLVCLISDFYPGAVTVAWKADSSPVKAGVETTTPSKQSNNKYAAKSYLSLTPEQWKSHRSYSCQVTHEGSTVEKTVAPTECS heavy 1: QVQLVESGGGVVQPGRSLRLSCAASGFTFSSFGMHWVRQAPGKGLEWVAVISFDGSIKYSVDSVKGRFTISRDNSKNTLFLQMNSLRAEDTAVYYCARDRLNYYESSGYYHYKYYGMAVWGQGTTVTVSSASTKGPSVFPLAPSSKSTSGGTAALGCLVKDYFPEPVTVSWNSGALTSGVHTFPAVLQSSGLYSLESVVTVPSSSLGTQTYICNVNHKPSNTKVDKKVEPKSCDKTHTCPPCPAPELLGGPSVFLFPPKPKDTLMISRTPEVTCVVVDVSHEDPEVKFNWYVDGVEVHNAKTKPCEEQYGSTYRCVSVLTVLHQDWLNGKEYKCKVSNKALPAPIEKTISKAKGQPREPQVYTLPPSRKKMTKNQVSLTCLVKGFYPSDIAVEWESNGQPENNYKTTPPVLKSDGSFFLYSKLTVDKSRWQQGNVFSCSVMHEALHNHYTQKSLSLSPGK light 2: EIVLTQSPATLSLSPGERATLSCRASKSVGRSLHWYQQKPGQAPRLLIKYASQSLSGIPARFSGSGSGTDFTLTISSLEPEDFAVYYCHQSSRLPFTFGPGTKVDIKRTVAAPSVFIFPPSDEQLKSGTASVVCLLNNFYPREAKVQWKVDNALQSGNSQESVTEQDSKDSTYSLESTLTLSKADYEKHKVYACEVTHQGLSSPVTKSFNRGEC heavy 2: not shown	8.3	0.8	1.5	0.39
iPS:454827 (bispecific antibody, human IgG1, kappa, lambda, N297G) light 1: QSVLTQPPSVSAAPGQKVTISCSGSRSNIGIKAVSWYQQLPGTAPKLLIYDNNKRPSGIPDRFSGSKSGTSATLGITGLQTGDEADYYCGTWDSRLSAVVFGGGTKLTVLGQPKAAPSVTLFPPSSEELQANKATLVCLISDFYPGAVTVAWKADSSPVKAGVETTTPSKQSNNKYAAKSYLSLTPEQWKSHRSYSCQVTHEGSTVEKTVAPTECS heavy 1: QVQLVESGGGVVQPGRSLRLSCAASGFTFSSFGMHWVRQAPGKGLEWVAVISFDGSIKYSVDSVKGRFTISRDNSKNTLFLQMNSLRAEDTAVYYCARDRLNYYESSGYYHYKYYGMAVWGQGTTVTVSSASTKGPSVFPLAPSSKSTSGGTAALGCLVKDYFPEPVTVSWNSGALTSGVHTFPAVLQSSGLYSLESVVTVPSSSLGTQTYICNVNHKPSNTKVDKKVEPKSCDKTHTCPPCPAPELLGGPSVFLFPPKPKDTLMISRTPEVTCVVVDVSHEDPEVKFNWYVDGVEVHNAKTKPCEEQYGSTYRCVSVLTVLHQDWLNGKEYKCKVSNKALPAPIEKTISKAKGQPREPQVYTLPPSRKKMTKNQVSLTCLVKGFYPSDIAVEWESNGQPENNYKTTPPVLKSDGSFFLYSKLTVDKSRWQQGNVFSCSVMHEALHNHYTQKSLSLSPGK light 2: EIVLTQSPATLSLSPGERATLSCRASQSVGRSLHWYQQKPGQAPRLLIKYASQSLSGIPARFSGSGSGTDFTLTISSLEPEDFAVYYCHQSSRLPFTFGPGTKVDIKRTVAAPSVFIFPPSDEQLKSGTASVVCLLNNFYPREAKVQWKVDNALQSGNSQESVTEQDSKDSTYSLESTLTLSKADYEKHKVYACEVTHQGLSSPVTKSFNRGEC heavy 2: not shown	8.9	0.75	1.7	0.34
iPS:454833 (bispecific antibody, human IgG1, kappa, lambda, N297G) light 1: QSVLTQPPSVSAAPGQKVTISCSGSRSNIGIKAVSWYQQLPGTAPKLLIYDNNKRPSGIPDRFSGSKSGTSATLGITGLQTGDEADYYCGTWDSRLSAVVFGGGTKLTVLGQPKAAPSVTLFPPSSEELQANKATLVCLISDFYPGAVTVAWKADSSPVKAGVETTTPSKQSNNKYAAKSYLSLTPEQWKSHRSYSCQVTHEGSTVEKTVAPTECS heavy 1: QVQLVESGGGVVQPGRSLRLSCAASGFTFSSFGMHWVRQAPGKGLEWVAVISFDGSIKYSVDSVKGRFTISRDNSKNTLFLQMNSLRAEDTAVYYCARDRLNYYESSGYYHYKYYGMAVWGQGTTVTVSSASTKGPSVFPLAPSSKSTSGGTAALGCLVKDYFPEPVTVSWNSGALTSGVHTFPAVLQSSGLYSLESVVTVPSSSLGTQTYICNVNHKPSNTKVDKKVEPKSCDKTHTCPPCPAPELLGGPSVFLFPPKPKDTLMISRTPEVTCVVVDVSHEDPEVKFNWYVDGVEVHNAKTKPCEEQYGSTYRCVSVLTVLHQDWLNGKEYKCKVSNKALPAPIEKTISKAKGQPREPQVYTLPPSRKKMTKNQVSLTCLVKGFYPSDIAVEWESNGQPENNYKTTPPVLKSDGSFFLYSKLTVDKSRWQQGNVFSCSVMHEALHNHYTQKSLSLSPGK light 2: EIVLTQSPATLSLSPGERATLSCRASKSVGRSLHWYQQKPGQAPRLLIKYASQSLSGIPARFSGSGSGTDFTLTISSLEPEDFAVYYCHQSSRLPFTFGPGTKVDIKRTVAAPSVFIFPPSDEQLKSGTASVVCLLNNFYPREAKVQWKVDNALQSGNSQESVTEQDSKDSTYSLESTLTLSKADYEKHKVYACEVTHQGLSSPVTKSFNRGEC heavy 2: not shown	9	0.76	2.6	0.24
iPS:454825 (bispecific antibody, human IgG1, kappa, lambda, N297G) light 1: QSVLTQPPSVSAAPGQKVTISCSGSRSNIGIKAVSWYQQLPGTAPKLLIYDNNKRPSGIPDRFSGSKSGTSATLGITGLQTGDEADYYCGTWDSRLSAVVFGGGTKLTVLGQPKAAPSVTLFPPSSEELQANKATLVCLISDFYPGAVTVAWKADSSPVKAGVETTTPSKQSNNKYAAKSYLSLTPEQWKSHRSYSCQVTHEGSTVEKTVAPTECS heavy 1: QVQLVESGGGVVQPGRSLRLSCAASGFTFSSFGMHWVRQAPGKGLEWVAVISFDGSIKYSVDSVKGRFTISRDNSKNTLFLQMNSLRAEDTAVYYCARDRLNYYESSGYYHYKYYGMAVWGQGTTVTVSSASTKGPSVFPLAPSSKSTSGGTAALGCLVKDYFPEPVTVSWNSGALTSGVHTFPAVLQSSGLYSLESVVTVPSSSLGTQTYICNVNHKPSNTKVDKKVEPKSCDKTHTCPPCPAPELLGGPSVFLFPPKPKDTLMISRTPEVTCVVVDVSHEDPEVKFNWYVDGVEVHNAKTKPCEEQYGSTYRCVSVLTVLHQDWLNGKEYKCKVSNKALPAPIEKTISKAKGQPREPQVYTLPPSRKKMTKNQVSLTCLVKGFYPSDIAVEWESNGQPENNYKTTPPVLKSDGSFFLYSKLTVDKSRWQQGNVFSCSVMHEALHNHYTQKSLSLSPGK light 2: EIVLTQSPATLSLSPGERATLSCRASKSVGRSLHWYQQKPGQAPRLLIKYASQSLSGIPARFSGSGSGTDFTLTISSLEPEDFAVYYCHQSSRLPFTFGPGTKVDIKRTVAAPSVFIFPPSDEQLKSGTASVVCLLNNFYPREAKVQWKVDNALQSGNSQESVTEQDSKDSTYSLESTLTLSKADYEKHKVYACEVTHQGLSSPVTKSFNRGEC heavy 2: not shown	8.4	0.79	2	0.29
iPS:454831 (bispecific antibody, human IgG1, kappa, lambda, N297G) light 1: QSVLTQPPSVSAAPGQKVTISCSGSRSNIGIKAVSWYQQLPGTAPKLLIYDNNKRPSGIPDRFSGSKSGTSATLGITGLQTGDEADYYCGTWDSRLSAVVFGGGTKLTVLGQPKAAPSVTLFPPSSEELQANKATLVCLISDFYPGAVTVAWKADSSPVKAGVETTTPSKQSNNKYAAKSYLSLTPEQWKSHRSYSCQVTHEGSTVEKTVAPTECS heavy 1: QVQLVESGGGVVQPGRSLRLSCAASGFTFSSFGMHWVRQAPGKGLEWVAVISFDGSIKYSVDSVKGRFTISRDNSKNTLFLQMNSLRAEDTAVYYCARDRLNYYESSGYYHYKYYGMAVWGQGTTVTVSSASTKGPSVFPLAPSSKSTSGGTAALGCLVKDYFPEPVTVSWNSGALTSGVHTFPAVLQSSGLYSLESVVTVPSSSLGTQTYICNVNHKPSNTKVDKKVEPKSCDKTHTCPPCPAPELLGGPSVFLFPPKPKDTLMISRTPEVTCVVVDVSHEDPEVKFNWYVDGVEVHNAKTKPCEEQYGSTYRCVSVLTVLHQDWLNGKEYKCKVSNKALPAPIEKTISKAKGQPREPQVYTLPPSRKKMTKNQVSLTCLVKGFYPSDIAVEWESNGQPENNYKTTPPVLKSDGSFFLYSKLTVDKSRWQQGNVFSCSVMHEALHNHYTQKSLSLSPGK light 2: EIVLTQSPATLSLSPGERATLSCRASQSVGRSLHWYQQKPGQAPRLLIKYASQSLSGIPARFSGSGSGTDFTLTISSLEPEDFAVYYCHQSSRLPFTFGPGTKVDIKRTVAAPSVFIFPPSDEQLKSGTASVVCLLNNFYPREAKVQWKVDNALQSGNSQESVTEQDSKDSTYSLESTLTLSKADYEKHKVYACEVTHQGLSSPVTKSFNRGEC heavy 2: not shown	7.6	0.9	1.7	0.38
iPS:454829 (bispecific antibody, human IgG1, kappa, lambda, N297G) light 1: QSVLTQPPSVSAAPGQKVTISCSGSRSNIGIKAVSWYQQLPGTAPKLLIYDNNKRPSGIPDRFSGSKSGTSATLGITGLQTGDEADYYCGTWDSRLSAVVFGGGTKLTVLGQPKAAPSVTLFPPSSEELQANKATLVCLISDFYPGAVTVAWKADSSPVKAGVETTTPSKQSNNKYAAKSYLSLTPEQWKSHRSYSCQVTHEGSTVEKTVAPTECS heavy 1: QVQLVESGGGVVQPGRSLRLSCAASGFTFSSFGMHWVRQAPGKGLEWVAVISFDGSIKYSVDSVKGRFTISRDNSKNTLFLQMNSLRAEDTAVYYCARDRLNYYESSGYYHYKYYGMAVWGQGTTVTVSSASTKGPSVFPLAPSSKSTSGGTAALGCLVKDYFPEPVTVSWNSGALTSGVHTFPAVLQSSGLYSLESVVTVPSSSLGTQTYICNVNHKPSNTKVDKKVEPKSCDKTHTCPPCPAPELLGGPSVFLFPPKPKDTLMISRTPEVTCVVVDVSHEDPEVKFNWYVDGVEVHNAKTKPCEEQYGSTYRCVSVLTVLHQDWLNGKEYKCKVSNKALPAPIEKTISKAKGQPREPQVYTLPPSRKKMTKNQVSLTCLVKGFYPSDIAVEWESNGQPENNYKTTPPVLKSDGSFFLYSKLTVDKSRWQQGNVFSCSVMHEALHNHYTQKSLSLSPGK light 2: EIVLTQSPATLSLSPGERATLSCRASQSVGRSLHWYQQKPGQAPRLLIKYASQSLSGIPARFSGSGSGTDFTLTISSLEPEDFAVYYCHQSSRLPFTFGPGTKVDIKRTVAAPSVFIFPPSDEQLKSGTASVVCLLNNFYPREAKVQWKVDNALQSGNSQESVTEQDSKDSTYSLESTLTLSKADYEKHKVYACEVTHQGLSSPVTKSFNRGEC heavy 2: not shown	9.8	0.7	1.8	0.36
